How the values were obtained:
Assay type in all cases: biochemical
[1] = ω-transaminase enzyme activity assay, forward direction (glutarate semialdehyde to 5-aminopentanoate), pyruvate formation by RP-HPLC; details: for ω-transaminase acceptance of glutarate semialdehyde, synthesizing 5-aminopentanoate, concluded from reversibility: concluded from confirmed reversibility of the ω-transaminase activity
Method: (§1) A nucleotide sequence encoding an N-terminal His-tag was added to the genes from Chromobacterium violaceum and Rhodobacter sphaeroides encoding the ω-transaminases of SEQ ID NOs: 8 and 10 respectively (see FIG. 10) such that N-terminal HIS tagged ω-transaminases could be produced. Each of the resulting modified genes was cloned into a pET21a expression vector under control of the T7 promoter and each expression vector was transformed into a BL21[DE3] E. coli host. The resulting recombinant E. coli strains were cultivated at 37° C. in a 250 mL shake flask culture containing 50 mL LB media and antibiotic selection pressure, with shaking at 230 rpm. Each culture was induced overnight at 16° C. using 1 mM IPTG.
(§2) The pellet from each induced shake flask culture was harvested via centrifugation. Each pellet was resuspended and lysed via sonication. The cell debris was separated from the supernatant via centrifugation and the cell free extract was used immediately in enzyme activity assays.
Enzyme activity in the forward direction (i.e., glutarate semialdehyde to 5-aminopentanoate) was confirmed for the transaminase of SEQ ID NO 10. Enzyme activity assays were performed in a buffer composed of a final concentration of 50 mM HEPES buffer (pH=7.5), 10 mM glutarate semialdehyde, 10 mM L-alanine and 100 μM pyridoxyl 5′ phosphate. Each enzyme activity assay reaction was initiated by adding a cell free extract of the ω-transaminase gene product or the empty vector control to the assay buffer containing the glutarate semialdehyde and incubated at 25° C. for 4 h, with shaking at 250 rpm. The formation of pyruvate was quantified via RP-HPLC.

[2] = ω-transaminase enzyme activity assay (N5-acetyl-1,5-diaminopentane to N5-acetyl-5-aminopentanal), L-alanine formation by RP-HPLC; details: for ω-transaminase activity converting N5-acetyl-1,5-diaminopentane to N5-acetyl-5-aminopentanal (substrate acceptance): cell free extract, 10 mM N5-acetyl-1,5-diaminopentane, 10 mM pyruvate, pH 7.5, 25° C., 4 h, against empty vector control (FIG. 15); for ω-transaminase acceptance of N5-acetyl-5-aminopentanal forming N5-acetyl-1,5-diaminopentane, concluded from reversibility: concluded from reversibility of the ω-transaminase activity (Example 1)
Method: The activity of the N-terminal His-tagged ω-transaminases of SEQ ID NOs: 8, 10-13 (see Example 3, and FIG. 10) for converting N5-acetyl-1,5-diaminopentane to N5-acetyl-5-aminopentanal was assayed using a buffer composed of a final concentration of 50 mM HEPES buffer (pH=7.5), 10 mM N5-acetyl-1,5-diaminopentane, 10 mM pyruvate and 100 μM pyridoxyl 5′ phosphate. Each enzyme activity assay reaction was initiated by adding a cell free extract of the ω-transaminase or the empty vector control to the assay buffer containing the N5-acetyl-1,5-diaminopentane then incubated at 25° C. for 4 h, with shaking at 250 rpm. The formation of L-alanine was quantified via RP-HPLC.

[3] = carboxylate reductase enzyme activity assay (glutarate semialdehyde to pentanedial), NADPH consumption at 340 nm; details: purified enzyme enhanced by gene product of sfp, 2 mM glutarate semialdehyde, 1 mM ATP, 1 mM NADPH, pH 7.5, room temperature, 20 min, against empty vector control (FIG. 16)
Method: The N-terminal His-tagged carboxylate reductase of SEQ ID NO 7 (see Example 3 and FIG. 10) was assayed using glutarate semialdehyde as substrate. The enzyme activity assay was performed in triplicate in a buffer composed of a final concentration of 50 mM HEPES buffer (pH=7.5), 2 mM glutarate semialdehyde, 10 mM MgCl2, 1 mM ATP and 1 mM NADPH. The enzyme activity assay reaction was initiated by adding purified carboxylate reductase and phosphopantetheine transferase or the empty vector control to the assay buffer containing the glutarate semialdehyde and then incubated at room temperature for 20 min. The consumption of NADPH was monitored by absorbance at 340 nm.

[4] = ω-transaminase enzyme activity assay, reverse direction (5-aminopentanoate to glutarate semialdehyde), L-alanine formation from pyruvate by RP-HPLC; details: cell free extract, 10 mM 5-aminopentanoate, 10 mM pyruvate, pH 7.5, 25° C., 4 h, against empty vector control (FIG. 18)
Method: as §1, §2
Enzyme activity assays in the reverse direction (i.e., 5-aminopentanoate to glutarate semialdehyde) were performed in a buffer composed of a final concentration of 50 mM HEPES buffer (pH=7.5), 10 mM 5-aminopentanoate, 10 mM pyruvate and 100 μM pyridoxyl 5′ phosphate. […] The formation of L-alanine from pyruvate was quantified via RP-HPLC.

Molecule	ω-transaminase activity converting glutarate semialdehyde to 5-aminopentanoate (substrate acceptance) ([1]; cell free extract, 10 mM glutarate semialdehyde, 10 mM L-alanine, pH 7.5, 25° C., 4 h, against empty vector control (FIG. 19))	ω-transaminase acceptance of glutarate semialdehyde, synthesizing 5-aminopentanoate, concluded from reversibility [1]	ω-transaminase activity converting N5-acetyl-1,5-diaminopentane to N5-acetyl-5-aminopentanal (substrate acceptance) [2]	ω-transaminase acceptance of N5-acetyl-5-aminopentanal forming N5-acetyl-1,5-diaminopentane, concluded from reversibility [2]	carboxylate reductase activity converting glutarate semialdehyde to pentanedial (substrate acceptance) [3]	ω-transaminase activity converting 5-aminopentanoate to glutarate semialdehyde (substrate acceptance) [4]
SEQ ID NO 10: Pseudomonas syringae ω-transaminase (Genbank Accession No. AAY39893.1), N-terminal HIS tagged; b286 says Rhodobacter sphaeroides (protein, listed as Pseudomonas syringae, N-terminal His tag, b286 says Rhodobacter sphaeroides) MSANNPQTLEWQALSSEHHLAPFSDYKQLKEKGPRIITRAEGVYLWDSEGNKILDGMSGLWCVAIGYGREELADAASKQMRELPYYNLFFQTAHPPVLELAKAISDIAPEGMNHVFFTGSGSEGNDTMLRMVRHYWALKGQPNKKTIISRVNGYHGSTVAGASLGGMTYMHEQGDLPIPGVVHIPQPYWFGEGGDMTPDEFGIWAAEQLEKKILELGVENVGAFIAEPIQGAGGVIVPPDSYWPKIKEILSRYDILFAADEVICGFGRTSEWFGSDFYGLRPDMMTIAKGLTSGYVPMGGLIVRDEIVAVLNEGGDFNHGFTYSGHPVAAAVALENIRILREEKIVERVRSETAPYLQKRLRELSDHPLVGEVRGVGLLGAIELVKDKTTRERYTDKGAGMICRTFCFDNGLIMRAVGDTMIIAPPLVISFAQIDELVEKARTCLDLTLAVLQG	accepted glutarate semialdehyde as substrate	accepted glutarate semialdehyde as substrate and synthesized 5-aminopentanoate	accepted N5-acetyl-1,5-diaminopentane as substrate	accept N5-acetyl-5-aminopentanal as substrate forming N5-acetyl-1,5-diaminopentane		
SEQ ID NO 7: Segniliparus rotundus carboxylate reductase (Genbank Accession No. ADG98140.1), N-terminal HIS tagged (protein, listed as Segniliparus rotundus, N-terminal His tag) MTQSHTQGPQASAAHSRLARRAAELLATDPQAAATLPDPEVVRQATRPGLRLAERVDAILSGYADRPALGQRSFQTVKDPITGRSSVELLPTFDTITYRELRERATAIASDLAHHPQAPAKPGDFLASIGFISVDYVAIDIAGVFAGLTAVPLQTGATLATLTAITAETAPTLFAASIEHLPTAVDAVLATPSVRRLLVFDYRAGSDEDREAVEAAKRKIADAGSSVLVDVLDEVIARGKSAPKAPLPPATDAGDDSLSLLIYTSGSTGTPKGAMYPERNVAHFWGGVWAAAFDEDAAPPVPAINITFLPLSHVASRLSLMPTLARGGLMHFVAKSDLSTLFEDLKLARPTNLFLVPRVVEMLYQHYQSELDRRGVQDGTREAEAVKDDLRTGLLGGRILTAGFGSAPLSAELAGFIESLLQIHLVDGYGSTEAGPVWRDGYLVKPPVTDYKLIDVPELGYFSTDSPHPRGELAIKTQTILPGYYKRPETTAEVFDEDGFYLTGDVVAQIGPEQFAYVDRRKNVLKLSQGEFVTLAKLEAAYSSSPLVRQLFVYGSSERSYLLAVIVPTPDALKKFGVGEAAKAALGESLQKIARDEGLQSYEVPRDFIIETDPFTVENGLLSDARKSLRPKLKEHYGERLEAMYKELADGQANELRDIRRGVQQRPTLETVRRAAAAMLGASAAEIKPDAHFTDLGGDSLSALTFSNFLHDLFEVDVPVGVIVSAANTLGSVAEHIDAQLAGGRARPTFATVHGKGSTTIKASDLTLDKFIDEQTLEAAKHLPKPADPPRTVLLTGANGWLGRFLALEWLERLAPAGGKLITIVRGKDAAQAKARLDAAYESGDPKLAGHYQDLAATTLEVLAGDFSEPRLGLDEATWNRLADEVDFISHPGALVNHVLPYNQLFGPNVAGVAEIIKLAITTRIKPVTYLSTVAVAAGVEPSALDEDGDIRTVSAERSVDEGYANGYGNSKWGGEVLLREAHDRTGLPVRVFRSDMILAHQKYTGQVNATDQFTRLVQSLLATGLAPKSFYELDAQGNRQRAHYDGIPVDFTAESITTLGGDGLEGYRSYNVFNPHRDGVGLDEFVDWLIEAGHPITRIDDYDQWLSRFETSLRGLPESKRQASVLPLLHAFARPGPAVDGSPFRNTVFRTDVQKAKIGAEHDIPHLGKALVLKYADDIKQLGLL					accepted glutarate semialdehyde as substrate	
SEQ ID NO 8: Chromobacterium violaceum ω-transaminase (Genbank Accession No. AAQ59697.1), N-terminal HIS tagged (protein, listed as Chromobacterium violaceum, N-terminal His tag) MQKQRTTSQWRELDAAHHLHPFTDTASLNQAGARVMTRGEGVYLWDSEGNKIIDGMAGLWCVNVGYGRKDFAEAARRQMEELPFYNTFFKTTHPAVVELSSLLAEVTPAGFDRVFYTNSGSESVDTMIRMVRRYWDVQGKPEKKTLIGRWNGYHGSTIGGASLGGMKYMHEQGDLPIPGMAHIEQPWWYKHGKDMTPDEFGVVAARWLEEKILEIGADKVAAFVGEPIQGAGGVIVPPATYWPEIERICRKYDVLLVADEVICGFGRTGEWFGHQHFGFQPDLFTAAKGLSSGYLPIGAVFVGKRVAEGLIAGGDFNHGFTYSGHPVCAAVAHANVAALRDEGIVQRVKDDIGPYMQKRWRETFSRFEHVDDVRGVGMVQAFTLVKNKAKRELFPDFGEIGTLCRDIFFRNNLIMRACGDHIVSAPPLVMTRAEVDEMLAVAERCLEEFEQTLKARGLA		accepted glutarate semialdehyde as substrate and synthesized 5-aminopentanoate	accepted N5-acetyl-1,5-diaminopentane as substrate	accept N5-acetyl-5-aminopentanal as substrate forming N5-acetyl-1,5-diaminopentane		accepted 5-aminopentanote as substrate

Source: US9957535B2, “Methods, reagents and cells for biosynthesizing compounds” (INVISTA North America S.á r.l., priority 2014, dated 2018)
